Results reported in IntAct's records for PubMed 19088199.

B1: Indoleamine 2,3-dioxygenase 1 (Mus musculus), P28776 (parent)
chain: MALSKISPTEGSRRILEDHHIDEDVGFALPHPLVELPDAYSPWVLVARNLPVLIENGQLREEVEKLPTLSTDGLRGHRLQRLAHLALGYITMAYVWNRGDDDVRKVLPRNIAVPYCELSEKLGLPPILSYADCVLANWKKKDPNGPMTYENMDILFSFPGGDCDKGFFLVSLLVEIAASPAIKAIPTVSSAVERQDLKALEKALHDIATSLEKAKEIFKRMRDFVDPDTFFHVLRIYLSGWKCSSKLPEGLLYEGVWDTPKMFSGGSAGQSSIFQSLDVLLGIKHEAGKESPAEFLQEMREYMPPAHRNFLFFLESAPPVREFVISRHNEDLTKAYNECVNGLVSVRKFHLAIVDTYIMKPSKKKPTDGDKSEEPSNVESRGTGGTNPMTFLRSVKDTTEKALLSWP

Variants of: B1
Details: with socs3_mouse Socs3, O35718
socs3_mouse Socs3, O35718, sequence (O35718 whole entry): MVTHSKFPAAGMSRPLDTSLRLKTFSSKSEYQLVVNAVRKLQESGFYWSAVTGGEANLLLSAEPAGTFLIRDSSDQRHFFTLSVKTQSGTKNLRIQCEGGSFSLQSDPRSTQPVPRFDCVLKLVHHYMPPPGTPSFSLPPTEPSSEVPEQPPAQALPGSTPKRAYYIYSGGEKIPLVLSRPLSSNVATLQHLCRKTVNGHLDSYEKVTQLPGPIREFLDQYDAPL

Row | Variant | effect of a mutation on the interaction
1 | Y115F;Y253F | disrupting interaction
